Test results taken from patent publication US20090258344.

Assays:
[1] = biological target: GST-tag fusion of the GTPase Cdc42
[2] = biological target: GST-tag fusion of the GTPase RhoA

Row | Protein | N-methylanthraniloyl(mant)-GTP incorporation into Rho GTPase, relative fluorescence (guanine nucleotide exchange assay) [1] | N-methylanthraniloyl(mant)-GTP incorporation into Rho GTPase, relative fluorescence (guanine nucleotide exchange assay) [2]
1 | bacterially expressed Histidine tag fusion of KIAA0861 DH-PH domain protein (protein) PRRRIIRDLLETEEIYIKEIKSIIDGYITPMDFIWLKHLIPDVLQNNKDFLFGNIRELYEFHNRTFLKELEKCAENPELLAHCFLKRKEDLQIYFKYHKNLPRARAIWQECQDCAYFGVCQRQLDHNLPLFKYLKGPSQRLIKYQMLLKGLLDFESPEDMEIDPGELGGSAKDGPKRTKDSAFSTELQQALAVIEDLIKSCELAVDLAAVTECPDDIGKLGKLLLHGPFSVWTIHKDRYKMKDLIRFKPSQRQIYLFERGIVFCKIRMEPGDQGLSPHYSFKKTMKLMTLSIRQLGRGSHRKFEIASRNGLEKYILQAASKEIRDCWFSEISKLLM | KIAA0861 and DBS DH-PH domain proteins are active in exchanging guanine nucleotide from the GST-tag fusions of the GTPases, RhoA and Cdc42 | KIAA0861 and DBS DH-PH domain proteins are active in exchanging guanine nucleotide from the GST-tag fusions of the GTPases, RhoA and Cdc42
2 | bacterially expressed Histidine tag fusion of Dbs DH-PH domain protein (protein) LRRHVMSELLDTERAYVEELLCVLEGYAAEMDNPLMAHLLSTGLHNKKDVLFGNMEEIYHFHNRIFLRELENYTDCPELVGRCFLERMEDFQIYEKYCQNKPRSESLWRQCSDCPFFQECQRKLDHKLSLDSYLLKPVQRITKYQLLLKEMLKYSRNCEGAEDLQEALSSILGILKAVNDSMHLIAITGYDGNLGDLGKLLMQGSFSVWTDHKRGHTKVKELARFKPMQRHLFLHEKAVLFCKKREENGEGYEKAPSYSYKQSLNMAAVGITENVKGDAKKFEIWYNAREEVYIVQAPTPEIKAAWVNEIRKVLT | KIAA0861 and DBS DH-PH domain proteins are active in exchanging guanine nucleotide from the GST-tag fusions of the GTPases, RhoA and Cdc42 | KIAA0861 and DBS DH-PH domain proteins are active in exchanging guanine nucleotide from the GST-tag fusions of the GTPases, RhoA and Cdc42
